In patent US9527898B2, “Oxyntomodulin derivatives and pharmaceutical composition for treating obesity comprising the same” (Hanmi Science Co., Ltd., dated 2016):
Non-standard residues stand in square brackets, D forms with d. No end group written: not given here. *: point of attachment. Acetyl(2-(4-imidazolyl)) = O=C(Cc1c[nH]cn1)*; Aib = CC(C)(N)C(=O)O

Key:
[1] = target: human GLP-1 receptor (human, UniProt P43220); assay: cell-based or functional assay
[2] = target: human glucagon receptor (human, UniProt P47871); assay: cell-based or functional assay

Binder	EC50 (nM), cAMP, CHO/GLP-1R [1] [nM]	EC50 (nM), cAMP, CHO/GCGR [2] [nM]
HGEGTFTSDLSRQMEEEAVRLFIEWAAHSQGTFTSDYSRYLDK (not fully specified (residue 1, N-terminus); also: N-terminal CA (4-imidazoacetyl), whether it replaces His1 not given here) [oxyntomodulin derivative of SEQ ID NO. 11]	> 1000	> 1000
{Acetyl(2-(4-imidazolyl))}-HGEGTFTSDLSRQMEEEAVRLFIEWAAHSQGTFTSDYSKYLD [oxyntomodulin derivative of SEQ ID NO. 6]		> 1000
HSQGTFTSDYSRYLDEEAVRLFIEWIRNTKRNRNNIA (not fully specified (residue 1, N-terminus); also: N-terminal CA (4-imidazoacetyl), whether it replaces His1 not given here) [oxyntomodulin derivative of SEQ ID NO. 17]		> 1000
H[Aib]QGTFTSDYSKYLDEKRAKEFVCWLMNT [oxyntomodulin derivative of SEQ ID NO. 23]	2.46	5.8
HSQGTFTSDYSRYLDEEAVELFIEWLMNTK [oxyntomodulin derivative of SEQ ID NO. 13]	> 1000	> 1000
H[Aib]QGTFTSDYSKYLDEKRAKEFVQWLMNT [oxyntomodulin derivative of SEQ ID NO. 28]		0.3
H[Aib]QGTFTSDYSKYLDEKRAKEFVQWLMNTC (also: possible ring formation not assignable from text) [oxyntomodulin derivative of SEQ ID NO. 25]	1.9	
Y[Aib]QGTFTSDYSKYLDEKRAKEFVQWLMNTC [oxyntomodulin derivative of SEQ ID NO. 31]	12.5	1
H[Aib]QGTFTSDYSKYLDEKRAKEFVQWLMNTC (also: possible ring formation not assignable from text) [oxyntomodulin derivative of SEQ ID NO. 24]	1.43	
H[Aib]QGTFTSDYAKYLDEKRAKEFVQWLMNTC [oxyntomodulin derivative of SEQ ID NO. 30]	2.2	80.2
